A word on the Kd: it is the equilibrium constant for the complex coming apart. One may read the koff as the rate constant with which the complex falls apart. As usually defined, the kon is a measure of how fast the partners come together.

This passage reports Kd, koff and kon results from patent publication US20220332813A1 (UNIVERSITY OF MARYLAND BALTIMORE, published 2022).

Assay [1] addresses T1, human recombinant tau (2N4R) (human, UniProt P10636-8 1-441).
T1 construct: Radio-iodinated in the cell assays; also called monomeric tau; full-length tau (2N4R)
Kind of assay: SPR, SorLA fragment 82-181 immobilised, increasing tau.

Assay [2] addresses T1, human recombinant tau (2N4R). Kind of assay: SPR single cycle, VPS10P domain immobilised, 1:1 fit.
The target of assay [3] is T2, hyperphosphorylated 2N4R tau produced by Sf9 cells (human, UniProt P10636-8 1-441, hyperphosphorylated (produced in Sf9 insect cells, intermediate phosphorylation state); sites not stated).
T2 construct: His-tagged; also called SF9 tau; 2N4R SF9
The assay is described as above.

Assay [4] addresses T2, hyperphosphorylated 2N4R tau produced …. Kind of assay: SPR equilibrium (KD eq, Req fit).
For assay [5], the target named is T1, human recombinant tau (2N4R). Briefly: SPR, from kinetic parameters of the 1:1 fit.
For assay [6], the target named is T2, hyperphosphorylated 2N4R tau produced …. Briefly: SPR, from kinetic parameters of the 1:1 fit. (SPR reads the build-up and loss of mass on a sensor chip optically.)

T1 sequence (P10636 other isoform, or with tags, fused parts or gaps limits assumed): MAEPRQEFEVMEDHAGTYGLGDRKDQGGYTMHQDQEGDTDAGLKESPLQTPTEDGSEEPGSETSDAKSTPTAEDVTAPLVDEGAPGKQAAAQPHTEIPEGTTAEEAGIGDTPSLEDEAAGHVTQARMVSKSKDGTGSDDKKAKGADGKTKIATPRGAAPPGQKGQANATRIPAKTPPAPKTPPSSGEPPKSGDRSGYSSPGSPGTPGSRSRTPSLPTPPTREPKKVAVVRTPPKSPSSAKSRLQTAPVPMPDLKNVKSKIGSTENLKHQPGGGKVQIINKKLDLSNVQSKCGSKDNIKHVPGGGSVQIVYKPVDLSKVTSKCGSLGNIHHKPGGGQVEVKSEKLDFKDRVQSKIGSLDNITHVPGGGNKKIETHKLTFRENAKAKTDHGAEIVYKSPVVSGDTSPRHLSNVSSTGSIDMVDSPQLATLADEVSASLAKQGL
T2 sequence (P10636 other isoform, or with tags, fused parts or gaps limits assumed): as above

B1: commercially available fragment of SorLA comprising residues 82-181 (receptor)
chain: SAALQPEPIKVYGQVSLNDSHNQMVVHWAGEKSNVIVALARDSLALARPKSSDVYVSYDYGKSFKKISDKLNFGLGNRSEAVIAQFYHSPADNKRYIFAD
notes: The range may be a misprint for 82-753; also called SorLA fragment
Regarding B1, in assay [1], the dissociation constant Kd was determined as 40 nM.

B2: recombinant human SORLA VPS10P domain (residues 82-753) (receptor)
chain: SAALQPEPIKVYGQVSLNDSHNQMVVHWAGEKSNVIVALARDSLALARPKSSDVYVSYDYGKSFKKISDKLNFGLGNRSEAVIAQFYHSPADNKRYIFADAYAQYLWITFDFCNTLQGFSIPFRAADLLLHSKASNLLLGFDRSHPNKQLWKSDDFGQTWIMIQEHVKSFSWGIDPYDKPNTIYIERHEPSGYSTVFRSTDFFQSRENQEVILEEVRDFQLRDKYMFATKVVHLLGSEQQSSVQLWVSFGRKPMRAAQFVTRHPINEYYIADASEDQVFVCVSHSNNRTNLYISEAEGLKFSLSLENVLYYSPGGAGSDTLVRYFANEPFADFHRVEGLQGVYIATLINGSMNEENMRSVITFDKGGTWEFLQAPAFTGYGEKINCELSQGCSLHLAQRLSQLLNLQLRRMPILSKESAPGLIIATGSVGKNLASKTNVYISSSAGARWREALPGPHYYTWGDHGGIITAIAQGMETNELKYSTNEGETWKTFIFSEKPVFVYGLLTEPGEKSTVFTIFGSNKENVHSWLILQVNATDALGVPCTENDYKLWSPSDERGNECLLGHKTVFKRRTPHATCFNGEDFDRPVVVSNCSCTREDYECDFGFKMSEDLSLEVCVPDPEFSGKSYSPPVPCPVGSTYRRTRGYRKISGDTCSGGDVEARLEGELVPCP
notes: also called SORL1 VPS10 domain; R&D Systems 9880-LA
On to B2, for which the koff in assay [2] came out at 0.41 s⁻¹; in assay [3], 0.0061 s⁻¹. Also, the kon in assay [2] was determined as 5e+07 M⁻¹ s⁻¹; in assay [3], 85000 M⁻¹ s⁻¹. For the same molecule, the Kd in assay [4] turned out to be 95 nM; in assay [5] it was 15 nM; in assay [6], 78 nM.
